Data as given in US20210070872A1 (AGENUS, published 2021).
Changes are numbered by the printed parent chain.

T1: biotinylated GITR (human, UniProt Q9Y5U5 26-161, limits assumed, biotinylated (sites not given))
T1 construct: also called GITR-bio; Biotin-GITR
T1 sequence: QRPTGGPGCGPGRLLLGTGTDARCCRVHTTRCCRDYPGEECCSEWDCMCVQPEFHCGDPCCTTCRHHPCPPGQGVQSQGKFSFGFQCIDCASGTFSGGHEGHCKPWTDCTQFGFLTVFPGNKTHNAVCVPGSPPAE

B1: germline variant antibody 86 (H1917E03 / K1917E03) (antibody, V domains shown)
VH: QVQLVQSGAEVKKPGASVKVSCKGSGYTFTEYAMYWVRQAPGQGMEWMGVIRTYSGGVTYNQKFRDRATMTVDTSISTAYMELSRLRSDDTAVYYCAKSGTVRGFAYWGQGTLVTVSS
VL: DIVMTQSPDSLAVSLGERATINCKSSQSLLNSGNQKNYLTWYHQKPGQPPKLLIYWASTRESGVPDRFSGSGSGTDFTLTISSVQAEDVAVYYCQNDYSYPYTFGQGTKLEIK
notes: IGHG1/IGKC expression vectors; measured from CHO culture supernatant; also called Antibody ID 86
B2: germline variant antibody 91 (H1917F03 / K1917F03) (antibody, V domains shown)
VH: B1 VH with A9T, Y35H, V50L, T59S, R65Q, D66E
VL: B1 VL with T40S, H43Q, Y93H, D97E, Y100F
notes: IGHG1/IGKC expression vectors; measured from CHO culture supernatant; also called Antibody ID 91
B3: germline variant antibody 92 (H1917F05 / K1917F05) (antibody, V domains shown)
VH: B1 VH with M45L, V50L, Y54F, R65Q, D66G, R87Q
VL: B1 VL with L52M, D76N, Y93H
notes: IGHG1/IGKC expression vectors; measured from CHO culture supernatant; also called Antibody ID 92
B4: germline variant antibody 94 (H1917G01 / K1917G01) (antibody, V domains shown)
VH: B1 VH with A9T, E31G, M45L, M48I, Y54F, A68V, T74K, L113F
VL: B1 VL with H43Q, S69T, Y93H
notes: IGHG1/IGKC expression vectors; measured from CHO culture supernatant; also called Antibody ID 94
B5: germline variant antibody 95 (H1917G05 / K1917G05) (antibody, V domains shown)
VH: B1 VH with E31D, M45L, V50L, T59S, D66G, A68V, L113F
VL: B1 VL with H43Q, L52M, Y93H, Y100F
notes: IGHG1/IGKC expression vectors; measured from CHO culture supernatant; also called Antibody ID 95
B6: germline variant antibody 96 (H1917G06 / K1917G06) (antibody, V domains shown)
VH: B1 VH with V58L, A68V
VL: B1 VL with G33S, T40S, V84L, Y93H
notes: IGHG1/IGKC expression vectors; measured from CHO culture supernatant; also called Antibody ID 96
B7: germline variant antibody 101 (H1917H01 / K1917H01) (antibody, V domains shown)
VH: B1 VH with G24A, E31D, Y35H, M45L, V50L, Y54F, T59S, R65Q, A68V, T74K
VL: B1 VL with G33S, Y93H, Y100F
notes: IGHG1/IGKC expression vectors; measured from CHO culture supernatant
B8: germline variant antibody 102 (H1917H02 / K1917H02) (antibody, V domains shown)
VH: B1 VH with A9T, G24A, E31G, M45L, M48I, T59S, A68V
VL: B1 VL with G33S, T40S, H43Q, S69T
notes: IGHG1/IGKC expression vectors; measured from CHO culture supernatant; also called Antibody ID 102
B9: germline variant antibody 105 (H1917H07 / K1917H07) (antibody, V domains shown)
VH: B1 VH with M45L, V50L, Y54F, T59S, R65K, D66G, A68V
VL: B1 VL with T40S, H43Q
notes: as for B7
B10: germline variant antibody 107 (H1917H09 / K1917H09) (antibody, V domains shown)
VH: B1 VH with E31G, M45L, G57D, T59S, A68V
VL: B1 VL with T40S, S69T
notes: as for B7
B11: germline variant antibody 35 (H1916D05 / K1916D05) (antibody, V domains shown)
VH: B1 VH with V11A, E31G, M48I, Y54F, G57D, D66G, A68V
VL: B1 VL with S69T
notes: IGHG1/IGKC expression vectors; measured from CHO culture supernatant; also called Antibody ID 35
B12: germline variant antibody 37 (H1916D07 / K1916D07) (antibody, V domains shown)
VH: B1 VH with A9T, M48I, V50L, Y54F, G57E, R65K, A68V
VL: B1 VL with H43Q, S69T, V84L, Y93H, D97E
notes: IGHG1/IGKC expression vectors; measured from CHO culture supernatant; also called Antibody ID 37
B13: germline variant antibody 42 (H1916E01 / K1916E01) (antibody, V domains shown)
VH: B1 VH with A9T, G24A, E31D, M45L, M48I, Y54F, G57D, V58L, R65Q, A68V
VL: B1 VL with T40S, H43Q, V84L
notes: IGHG1/IGKC expression vectors; measured from CHO culture supernatant; also called Antibody ID 42
B14: germline variant antibody 49 (H1916E11 / K1916E11) (antibody, V domains shown)
VH: B1 VH with A9T, E31G, M45L, G57D, D66E
VL: B1 VL with Y93H, Y100F
notes: IGHG1/IGKC expression vectors; measured from CHO culture supernatant; also called Antibody ID 49
B15: germline variant antibody 70 (H1917B04 / K1917B04) (antibody, V domains shown)
VH: B1 VH with A9T, G24A, E31G, M48I, G57D, R65K
VL: B1 VL with T40S, H43Q, V84L, Y93H, Y100F
notes: IGHG1/IGKC expression vectors; measured from CHO culture supernatant; also called Antibody ID 70
B16: germline variant antibody 78 (H1917D01 / K1917D01) (antibody, V domains shown)
VH: B1 VH with E31D, M45L, M48I, R52K, S88G, Q110R
VL: B1 VL with L52M, S69T, Y93H
notes: IGHG1/IGKC expression vectors; measured from CHO culture supernatant; also called Antibody ID 78
B17: germline variant antibody 97 (H1917G07 / K1917G07) (antibody, V domains shown)
VH: B1 VH with A9T, Y35H, M48I, V50L, Y54F, V58L, T59S, A68V, T74K
VL: B1 VL with S69T, Y93H, D97E, Y100F
notes: IGHG1/IGKC expression vectors; measured from CHO culture supernatant; also called Antibody ID 97

target: T1, biotinylated GITR; assay: BLI (Octet), biotin-GITR on streptavidin tips, antibody supernatant
Experimental: Several hundred germlined antibodies were selected based on binding kinetics as determined by Octet measurements (Octet RED 96 system; ForteBio™ Inc., Menlo Park, Calif.). The experimental procedure was configured according to the instruction manual of the instrument. Biotin-GITR was bound to Streptavidin biosensor (SA) and PBS (pH 7.4) was used as a blank control. Briefly, the interaction analyses were conducted at 30° C. in running buffer (PBS, 0.05% Tween, pH7.4). Sensor tips were pre-wet for 10 minutes in running buffer immediately prior to use, and the micro plates used in the Octet were filled with 200 μl of sample or buffer per well and agitated at 800 rpm. For the experiments, commercially available precoated SA tips were used. Biotinylated GITR was loaded onto the ForteBio SA fibers in PBS pH7.4 for 10 minutes and washed for 4 minutes. For the association phase, the ligand-coated SA tips were immersed for 5 minutes in cell culture supernatant that was diluted 1:10 in running buffer prior to the measurement. Dissociation of the antibody-antigen complex was measured in wells containing the Octet buffer alone for 5 minutes. After each run, the tips were regenerated with Glycine (10 mM, pH 2.0). Affinity, Kₒₙ and Koff were determined with Octet evaluation software v6.3 using a 1:1 binding model with local full fitting.

| Binder | Kd [nM] | koff [s⁻¹] | kon [M⁻¹ s⁻¹] |
| --- | --- | --- | --- |
| B1 | 0.75 | 0.000432 | 577000 |
| B2 | 3.07 | 0.00159 | 520000 |
| B3 | 1.01 | 0.000361 | 357000 |
| B4 | 1.18 | 0.00044 | 372000 |
| B5 | 2.21 | 0.000672 | 305000 |
| B6 | 1.09 | 0.000373 | 344000 |
| B7 | 0.354 | 0.000332 | 936000 |
| B8 | 1.97 | 0.000632 | 321000 |
| B9 | 1.38 | 0.000486 | 351000 |
| B10 | 2.21 | 0.000657 | 298000 |
| B11 | 0.187 | 0.00024 | 1.29e+06 |
| B12 | 0.0317 | 0.000242 | 7.64e+06 |
| B13 | 0.377 | 0.000157 | 417000 |
| B14 | 2.09 | 0.000707 | 338000 |
| B15 | 2.01 | 0.000879 | 437000 |
| B16 | 1 | 0.000327 | 325000 |
| B17 | 1.43 | 0.000761 | 534000 |
